Reference: paper PMC5335332, “Arsenite oxidation regulator AioR regulates bacterial chemotaxis towards arsenite in Agrobacterium tumefaciens GW4” (Scientific Reports, 2017)

Experiments:
[1] = biological target: T1, Mcp (sensing domain; truncated Mcp); experiment: intrinsic tryptophan fluorescence quenching at […] nm; assay type: binding, Agrobacterium tumefaciens; settings: 1.0 μM protein, 0-25 μM As(III), 1 h, room temperature
T1 construct: predicted extracellular sensing domain, aa 43-325, EcoRI-HindIII in pET-28a(+), His-tagged, E. coli, Ni-NTA; one of 20 mcp genes in the genome; Trp residues W44, W166, W254, W308

[2] = tested on: T2, AioR DNA-binding domain (HTH) (Agrobacterium tumefaciens GW4), ORF:ca4d298f; experiment: DNase I footprinting; settings: 20 mM Tris-HCl pH 7.0, 50 mM NaCl, 1 mM DTT, 10 mM MgCl2, 100 ug/mL BSA; 28 C, 30 min; 6% native PAGE in 1x TGE
T2 sequence: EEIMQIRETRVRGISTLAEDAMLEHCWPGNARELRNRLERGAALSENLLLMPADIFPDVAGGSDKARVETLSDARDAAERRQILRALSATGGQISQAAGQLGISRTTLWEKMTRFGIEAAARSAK

[3] = tested on: T2, AioR DNA-binding domain (HTH) (Agrobacterium tumefaciens GW4), ORF:ca4d298f; experiment: EMSA; settings: 20 mM Tris-HCl pH 7.0, 50 mM NaCl, 1 mM DTT, 10 mM MgCl2, 100 ug/mL BSA; 28 C, 30 min; 6% native PAGE in 1x TGE
[4] = tested on: T2, AioR DNA-binding domain (HTH) (Agrobacterium tumefaciens GW4), ORF:ca4d298f; experiment: competition; settings: 20 mM Tris-HCl pH 7.0, 50 mM NaCl, 1 mM DTT, 10 mM MgCl2, 100 ug/mL BSA; 28 C, 30 min; 6% native PAGE in 1x TGE

## O[As](O)O [As(III)]
[1]
  Kd: 11 ± 3.02 µM

## TACGGAAAGCACAATACGTGTGCGAATGAAACCAGTTTGCAGTGTTCGGATTTCCGAACATCATTGAAATAAATGCCGTTATTTTGTGCAGTATAGATTGATTAATATGTTTTATTTATAATATAAATTTTTGCTACATAGCAGTATTCGGATTTAATCGGAGCCAGCATTTGCTTATTGCTACATATATAAACACCTATAAGCTCTAATATGATTCTTTTATGACAATAATATCGAAAAATTAACTATGCGATCCCAG (double strand) [mcp regulatory region, 259 bp]
[2]
  binding: binds
[3]
  binding: binds
[4]
  binding: binds

## TACGGAAAGCACAATACGTGTGCGAATGAAACCAGTTTGCAGTTGTCGGATTTCCGCTTATCATTGAAATAAATGCCGTTATTTTGTGCAGTATAGATTGATTAATATGTTTTATTTATAATATAAATTTTTGCTACATAGCAGTATTCGGATTTAATCGGAGCCAGCATTTGCTTATTGCTACATATATAAACACCTATAAGCTCTAATATGATTCTTTTATGACAATAATATCGAAAAATTAACTATGCGATCCCAG (double strand) [mutant mcp regulatory region]
[3]
  binding: no binding

## TTTCACGCACGACACTCTGGGAGAAGATGACGCGTTTCGGAATAGAAGCAGCCGCACGTTCGGCCAAATGAACAACGGCGGCGAGACGCTGTTCGGAAAAGCGAACGGGCAACTGGCCATCAAACGGGAAAATATCTATATTTCAGTATTTTAGGAATTGGCATAGCAAT (double strand) [aioBA regulatory region, 170 bp]
[3]
  binding: binds
